Results taken from patent publication US5082772A, “Process for preparing deacetylcephalosporin C” (priority 1988, dated 1992).
“And” between values parts separate entries of the source, which are not always exact repeats. Equal entries are not always repeated.

How the values were obtained:
[1] = Stability (half-life) of native enzyme; format: physicochemical, Streptomyces clavuligerus
Text: The purified native enzyme obtained from cell-free extracts of S. clavuligerus can be partially stabilized by phenylmethylsulfonyl fluoride and ethanol.

[2] = target: T1, recombinantly produced DAOC synthase (Streptomyces clavuligerus, UniProt P18548); assay: Kinetics of recombinant enzyme (Lineweaver-Burk); format: biochemical; details: pH 7.0, 50 mM HEPES buffer, 36° C.
T1 construct: made in house; host or cells: Escherichia coli K12 JM109 (plasmid pOW382)
Protocol: The kinetics of the native enzyme and recombinant enzyme were determined under the optimal reaction conditions for the enzyme, i.e., at pH 7.0 in 50 mM HEPES buffer at 36° C.

[3] = Isoelectric points of purified enzyme; format: physicochemical, Streptomyces clavuligerus; details: two distinct points

B1: purified native enzyme: DAOC synthase obtained from cell-free extracts of S. clavuligerus (protein, UniProt P18548 1-311, looked up)
Deacetoxycephalosporin C …: MDTTVPTFSLAELQQGLHQDEFRRCLRDKGLFYLTDCGLTDTELKSAKDLVIDFFEHGSEAEKRAVTSPVPTMRRGFTGLESESTAQITNTGSYSDYSMCYSMGTADNLFPSGDFERIWTQYFDRQYTASRAVAREVLRATGTEPDGGVEAFLDCEPLLRFRYFPQVPEHRSAEEQPLRMAPHYDLSMVTLIQQTPCANGFVSLQAEVGGAFTDLPYRPDAVLVFCGAIATLVTGGQVKAPRHHVAAPRRDQIAGSSRTSSVFFLRPNADFTFSVPLARECGFDVSLDGETATFQDWIGGNYVNIRRTSKA
half-life ([1]; not stabilized): 20 h
half-life ([1]; stabilized by phenylmethylsulfonyl fluoride and ethanol): 48 h

B2: recombinant synthase: S. clavuligerus DAOC synthase (expandase) produced in recombinant E. coli and purified (protein, UniProt P18548 1-311, looked up)
Deacetoxycephalosporin C …: B1 Deacetoxycephalosporin C …
modifications: recombinant, expressed in E. coli
notes: S. clavuligerus DAOC synthase (expandase) produced in recombinant E. coli and purified
Vmax [2]: 0.432 μmol DAOC formed/min/mg protein

B3: purified enzyme: purified deacetoxycephalosporin C synthase of S. clavuligerus (protein, UniProt P18548 1-311, looked up)
Deacetoxycephalosporin C …: B1 Deacetoxycephalosporin C …
isoelectric points [3]: 5.3±0.2 and 6.1±0.2
